In patent US11298402B2, “Lysosomal degradation of lipids and proteins and method of use thereof” (University of Ottawa, priority 2015, dated 2022):
Entries after “also recorded” stand apart in the source; their conditions may differ.

Key:
[1] = system: McA-RH7777 cells (A18-C3); assay: Live imaging of lysosomal motility and lysosome-CLD interaction (kiss-and-run); type: cell-based, rat; settings: for lysosomal adherence to / dissociation from CLD (the off phase): Arl8b-expressing cells, EPA
[2] = system: endogenous HOPS subunits (Vps41, Vps11, Vps39); assay: Proximity ligation assay (in situ co-IP) of Arl8b with HOPS subunits; type: cell-based, rat; settings: mCherry-tagged Arl8b mutants; baseline and 1 h post-EPA
Protocol: In certain non-limiting examples described herein, McA-RH7777 cells stably expressing human apoB-100 and human apoC-III (designated A18-C3) were used for the studies. […] In addition, these studies, particularly those concerning EPA- or DHA-triggered lysosomal motility and CLD degradation, were also performed using primary rat hepatocytes. Transfection of plasmids encoding proteins of interest, or transfection of siRNA specific for silencing target gene expression, was achieved using the FuGENE HP Extreme reagent (Roche). Representative gene silencing siRNA sequences, which are not meant to be limiting, are described in Table 1, and plasmids encoding proteins of interest are described in Table 2. The effectiveness of siRNA silencing was verified by Western-blotting of cellular content of the target proteins, and by intracellular localization assay using siRNA-Tracker (Mirus Bioscience). Twenty-four h after plasmid transfection, or 48 h after siRNA transfection, the cells were cultured in lipid-rich media containing fetal bovine serum (20%) and OA (0.4 mM). The lipid-laden cells were switched to fresh media supplemented with OA or EPA (0.4 mM). In live imaging experiments, LipidTOX Red (Life Technologies) and LysoTracker (Life Technologies) were added to media prior to EPA treatment, to visualize lipid droplets and lysosomes, respectively. For visualizing peroxisomes, Peroxisome-GFP (Invitrogen) was introduced to the cells 24 h prior to experiments. Quantification of cell lipid contents was achieved either by direct mass measurement (HPTLC) and counting the number of lipid droplets using Image J Lipid Droplet Counter Plug-In, or indirectly by Western blot analysis of cellular content of ADRP. Secretion of apoB and TG-rich lipoprotein was determined by Western blot analysis and metabolic labeling. Mitochondrial β-oxidation was measured using MitoSOX Red (Life Technologies) in situ. Autophagic flux was determined by using Cyto-ID assay (Enzo Life Science) and by monitoring GFP-LC3 clustering in situ. Interaction of Arl8b and subunits of the HOPS complex was determined in situ by the proximity ligation assay (Olink Biosience). Cytoplasmic pH was measured using the cytosolic pHrodo indicator reagent (Invitrogen). Live imaging of fluorescent-tagged proteins was performed 1 h post-EPA treatment. Cells were also collected at the time of EPA treatment for transmission EM and tomography, as well as immuno-EM. For movies, cells were imaged at 60 sec intervals every 5 min, for a total of 30 min.
Cells were transfected with plasmids encoding RFP-tagged Arl8b^WT, Arl8b^Q75L, or Arl8b^T34N. The cells were treated with OA for 16 h (baseline condition as control). […] Quantification of signals was done in a total of 50 cells under each condition from 3 independent experiments.

[3] = system: McA-RH7777 cells (A18-C3); assay: Immuno-EM of Arl8b organellar association; type: cell-based, rat; settings: RFP-tagged Arl8b in transfected cells, 1 h post-EPA
Protocol: For immunogold labeling, pellets of cells cultured in media containing OA or EPA (0.4 mM) were fixed with 0.5% glutaraldehyde and 4% paraformaldehyde in 0.1 M phosphate buffer (pH 7.4) and dehydrated through a series of graded ethanol dilutions, and embedded in LR White acrylic resin (London Resin Company). Ultrathin sections (80 nm) were placed on Formvar-coated nickel grids. For post-embedding immunolabeling, the sections were incubated with an anti-Arl8b antibody (Fitzgerald) for 1 h. For ^RFPArl8b-transfected cells, that primary antibody used was anti-RFP (Abcam). After washing with 0.2 M sodium cacodylate buffer containing 0.1% calcium chloride, pH 7.4, the samples were incubated with the secondary antibody conjugated with 10-nm gold particles. To increase contrast, the ultrathin sections were stained with 2% uranyl acetate for 6 min and Reynold's lead for 5 min. The grids were examined with a Tecnai 12 120 kV TEM as described above.

[4] = system: C57BL/6 mice; assay: Diet-induced fatty liver mouse model (high-fat-high-sucrose diet), Oil Red O; type: in vivo; settings: adenovirus injected 1 day before HFHS diet for up to 4 days
Protocol: The respective Arl8b^T34N (DN), Arl8b^Q75L (DA), and Arl8b^WT constructs, along with empty virus (EV; control treatment) were injected into mice 1 day prior to feeding with a high fat diet for up to 4 days. The livers were stained with Oil Red O to determine the lipid contents, under the expression of various forms of Arl8b.
In these experiments, C57BL/6 mice were injected with adenovirus encoding different variants, namely Arl8b^T34N, Arl8b^Q75L, and Arl8b^WT. In these mice, expression of Arl8b proteins encoded by the adenoviral vectors lasts at least a few weeks. Thus, 1-day after viral injection, the mice were placed on a high-fat-high-sucrose (HFHS) diet for up to 4 days.

Row | Molecule | lysosomal adherence to / dissociation from CLD (the off phase) [1] | binding to endogenous HOPS subunits [2] | organellar association (lysosome vs CLD) [3] | liver steatosis (Oil Red O) [4] | lysosomal adherence to / dissociation from CLD (the off phase) ([1]; listed as GFP::Arl8b^Q75L) | effect on EPA-triggered lysosomal motility / lysosomal interaction with CLD ([1]; cells silenced, transfected or pre-treated (15 min) before EPA)
1 | Arl8b^T34N: putative GDP-bound, dominant negative Arl8b mutant (Thr-to-Asn at 34; SEQ ID NO: 12), expressed from plasmid or adenovirus Adv-MG1023; tagged forms used (protein, GFP/RFP tags in some forms; T34N substitution, GDP-binding, tagged forms used) MLALISRLLDWFRSLFWKEEMELTLVGLQYSGKNTFVNVIASGQFSEDMIPTVGFNMRKVTKGNVTIKIWDIGGQPRFRSMWERYCRGVNAIVYMIDAADREKIEASRNELHNLLDKPQLQGIPVLVLGNKRDLPNALDEKQLIEKMNLSAIQDREICCYSISCKEKDNIDITLQWLIQHSKSRRS | fastened | only shows interaction with Vps39 | mainly CLD-borne | nearly absent lipid accumulation |  | 
2 | Arl8b^Q75L: putative GTP-bound, dominant active Arl8b mutant (Gln-to-Leu at 75; SEQ ID NO: 13), expressed from plasmid or adenovirus Adv-MG1022; tagged forms used (protein, GFP/RFP tags in some forms; Q75L substitution, GTP-binding, tagged forms used) MLALISRLLDWFRSLFWKEEMELTLVGLQYSGKTTFVNVIASGQFSEDMIPTVGFNMRKVTKGNVTIKIWDIGGLPRFRSMWERYCRGVNAIVYMIDAADREKIEASRNELHNLLDKPQLQGIPVLVLGNKRDLPNALDEKQLIEKMNLSAIQDREICCYSISCKEKDNIDITLQWLIQHSKSRRS | no disassociation of lysosomes from CLD occurred | binds to Vps41 and Vps11; also recorded: does not bind to Vps39 | predominately associated with lysosomes | developed pronounced steatosis | prolonged lysosomal adherence to CLD | higher incidence of direct lysosome-lipid droplet interaction
